Laboratory results: publication PMC8956632

B1: OX1R-EGFP [human] / 5-HT1AR-Rluc [human] (parent)
chain 1: MEPSATPGAQMGVPPGSREPSPVPPDYEDEFLRYLWRDYLYPKQYEWVLIAAYVAVFVVALVGNTLVCLAVWRNHHMRTVTNYFIVNLSLADVLVTAICLPASLLVDITESWLFGHALCKVIPYLQAVSVSVAVLTLSFIALDRWYAICHPLLFKSTARRARGSILGIWAVSLAIMVPQAAVMECSSVLPELANRTRLFSVCDERWADDLYPKIYHSCFFIVTYLAPLGLMAMAYFQIFRKLWGRQIPGTTSALVRNWKRPSDQLGDLEQGLSGEPQPRARAFLAEVKQMRARRKTAKMLMVVLLVFALCYLPISVLNVLKRVFGMFRQASDREAVYACFTFSHWLVYANSAANPIIYNFLSGKFREQFKAAFSCCLPGLGPCGSLKAPSPRSSASHKSLSLQSRCSISKISEHVVLTSVTTVLP
chain 2: MDVLSPGQGNNTTSPPAPFETGGNTTGISDVTVSYQVITSLLLGTLIFCAVLGNACVVAAIALERSLQNVANYLIGSLAVTDLMVSVLVLPMAALYQVLNKWTLGQVTCDLFIALDVLCCTSSILHLCAIALDRYWAITDPIDYVNKRTPRRAAALISLTWLIGFLISIPPMLGWRTPEDRSDPDACTISKDHGYTIYSTFGAFYIPLLLMLVLYGRIFRAARFRIRKTVKKVEKTGADTRHGASPAPQPKKSVNGESGSRNWRLGVESKAGGALCANGAVRQGDDGAALEVIEVHRVGNSKEHLPLPSEAGPTPCAPASFERKNERNAEAKRKMALARERKTVKTLGIIMGTFILCWLPFFIVALVLPFCESSCHMPTLLGAIINWLGYSNSLLNPVIYAYFNKDFQNAFKKIIKCKFCRQ
B2: 5-HT1AR-EGFP [human] / OX1R-Rluc [human] (parent)
chain 1: B1 chain 2
chain 2: B1 chain 1

Variants of: B1
Assay: BRET
Conditions: with 5-HT1AR-Rluc [human]; HEK293 cells, basal (no agonist); parent: 0.27; read off a plot

| response | Variant |
| --- | --- |
| 0.15 | chain 1 MEPSATPGAQMGVPPGSREPSPVPPDYEDEFLRYLWRDYLYPKQYEWVLIAAYVAVFVVALVGNTLVCLAVWRNHHMRTVTNYFIVNLSLADVLVTAICLPASLLVDITESWLFGHALCKVIPYLQAVSVSVAVLTLSFIALDRWYAICHPLLFKSTARRARGSILGIWAVSLAIAVPQAAVMECSSVLPELANRTRLFSVCDERWADDLYPKIYHSCFFIVTYLAPLGLMAMAYFQIFRKLWGRQIPGTTSALVRNWKRPSDQLGDLEQGLSGEPQPRARAFLAEVKQMRARRKTAKMLMVVLLVFALCYLPISVLNVLKRVFGMFRQASDREAVYACFTFSHWLVYANSAANPIIYNFLSGKFREQFKAAFSCCLPGLGPCGSLKAPSPRSSASHKSLSLQSRCSISKISEHVVLTSVTTVLP [chain 1 M176A] |
| 0.23 | chain 1 MEPSATPGAQMGVPPGSREPSPVPPDYEDEFLRYLWRDYLYPKQYEWVLIAAYVAVFVVALVGNTLVCLAVWRNHHMRTVTNYFIVNLSLADVLVTAICLPASLLVDITESWLFGHALCKVIPYLQAVSVSVAVLTLSFIALDRWYAICHPLLFKSTARRARGSILGIWAVSLAIMVPQAAVMECSSVLPELANRTRLFSVCDERWADDLYPKIYHSCFFIVTYAAPLGLMAMAYFQIFRKLWGRQIPGTTSALVRNWKRPSDQLGDLEQGLSGEPQPRARAFLAEVKQMRARRKTAKMLMVVLLVFALCYLPISVLNVLKRVFGMFRQASDREAVYACFTFSHWLVYANSAANPIIYNFLSGKFREQFKAAFSCCLPGLGPCGSLKAPSPRSSASHKSLSLQSRCSISKISEHVVLTSVTTVLP [chain 1 L225A] |
| 0.21 | chain 1 MEPSATPGAQMGVPPGSREPSPVPPDYEDEFLRYLWRDYLYPKQYEWVLIAAYVAVFVVALVGNTLVCLAVWRNHHMRTVTNYFIVNLSLADVLVTAICLPASLLVDITESWLFGHALCKVIPYLQAVSVSVAVLTLSFIALDRWYAICHPLLFKSTARRARGSILGIWAVSLAIMVPQAAVMECSSVLPELANRTRLFSVCDERWADDLYPKIYHSCFFIVTYLAPLGAMAMAYFQIFRKLWGRQIPGTTSALVRNWKRPSDQLGDLEQGLSGEPQPRARAFLAEVKQMRARRKTAKMLMVVLLVFALCYLPISVLNVLKRVFGMFRQASDREAVYACFTFSHWLVYANSAANPIIYNFLSGKFREQFKAAFSCCLPGLGPCGSLKAPSPRSSASHKSLSLQSRCSISKISEHVVLTSVTTVLP [chain 1 L230A] |
| 0.27 | chain 1 MEPSATPGAQMGVPPGSREPSPVPPDYEDEFLRYLWRDYLYPKQYEWVLIAAYVAVFVVALVGNTLVCLAVWRNHHMRTVTNYFIVNLSLADVLVTAICLPASLLVDITESWLFGHALCKVIPYLQAVSVSVAVLTLSFIALDRWYAICHPLLFKSTARAARGSILGIWAVSLAIMVPQAAVMECSSVLPELANRTRLFSVCDERWADDLYPKIYHSCFFIVTYLAPLGLMAMAYFQIFRKLWGRQIPGTTSALVRNWKRPSDQLGDLEQGLSGEPQPRARAFLAEVKQMRARRKTAKMLMVVLLVFALCYLPISVLNVLKRVFGMFRQASDREAVYACFTFSHWLVYANSAANPIIYNFLSGKFREQFKAAFSCCLPGLGPCGSLKAPSPRSSASHKSLSLQSRCSISKISEHVVLTSVTTVLP [chain 1 R160A] |

Variants of: B2
Assay: BRET
Conditions: with OX1R-Rluc [human]; HEK293 cells, basal (no agonist); parent: 0.26; read off a plot

| response | Variant |
| --- | --- |
| 0.26 | chain 1 MDVLSPGQGNNTTSPPAPFETGGNTTGISDVTVSYQVITSLLLGTLIFCAVLGNACVVAAIALERSLQNVANYLIGSLAVTDLMVSVLVLPMAALYQVLNKWTLGQVTCDLFIALDVLCCTSSILHLCAIALDRYWAITDPIDYVNKRTPRRAAALISLTWLIGFLISIPPMLGARTPEDRSDPDACTISKDHGYTIYSTFGAFYIPLLLMLVLYGRIFRAARFRIRKTVKKVEKTGADTRHGASPAPQPKKSVNGESGSRNWRLGVESKAGGALCANGAVRQGDDGAALEVIEVHRVGNSKEHLPLPSEAGPTPCAPASFERKNERNAEAKRKMALARERKTVKTLGIIMGTFILCWLPFFIVALVLPFCESSCHMPTLLGAIINWLGYSNSLLNPVIYAYFNKDFQNAFKKIIKCKFCRQ [chain 1 W175A] |
| 0.23 | chain 1 MDVLSPGQGNNTTSPPAPFETGGNTTGISDVTVSYQVITSLLLGTLIFCAVLGNACVVAAIALERSLQNVANYLIGSLAVTDLMVSVLVLPMAALYQVLNKWTLGQVTCDLFIALDVLCCTSSILHLCAIALDRYWAITDPIDYVNKRTPRRAAALISLTWLIGFLISIPPMLGWRTPEDRSDPDACTISKDHGYTIASTFGAFYIPLLLMLVLYGRIFRAARFRIRKTVKKVEKTGADTRHGASPAPQPKKSVNGESGSRNWRLGVESKAGGALCANGAVRQGDDGAALEVIEVHRVGNSKEHLPLPSEAGPTPCAPASFERKNERNAEAKRKMALARERKTVKTLGIIMGTFILCWLPFFIVALVLPFCESSCHMPTLLGAIINWLGYSNSLLNPVIYAYFNKDFQNAFKKIIKCKFCRQ [chain 1 Y198A] |
| 0.16 | chain 1 MDVLSPGQGNNTTSPPAPFETGGNTTGISDVTVSYQVITSLLLGTLIFCAVLGNACVVAAIALERSLQNVANYLIGSLAVTDLMVSVLVLPMAALYQVLNKWTLGQVTCDLFIALDVLCCTSSILHLCAIALDRYWAITDPIDYVNKRTPARAAALISLTWLIGFLISIPPMLGWRTPEDRSDPDACTISKDHGYTIYSTFGAFYIPLLLMLVLYGRIFRAARFRIRKTVKKVEKTGADTRHGASPAPQPKKSVNGESGSRNWRLGVESKAGGALCANGAVRQGDDGAALEVIEVHRVGNSKEHLPLPSEAGPTPCAPASFERKNERNAEAKRKMALARERKTVKTLGIIMGTFILCWLPFFIVALVLPFCESSCHMPTLLGAIINWLGYSNSLLNPVIYAYFNKDFQNAFKKIIKCKFCRQ [chain 1 R151A] |
